Values of other authors, collected in publication PMC2794832 (Journal of nuclear medicine : official publication, Society …, 2008).

Tested on: tumors of HEK cells stably transfected to express only SSTR2
Conditions: mouse, in vivo

**Q.** With “^111In-1,4,7,10-tetraazacyclododecane-1,4,7,10-tetraacetic acid-sst2-ANT [^111In-DOTA-sst2-ANT]” as the substance, how does the “uptake of the radiopharmaceutical in tumors” value read?
**A.** Its value is “high uptake”.
